# Laboratory results reported in the nanobody polyreactivity screen of Harvey et al. (2022).
# Test: yeast display, Sf9 membrane polyspecificity reagent, FACS + sequencing; frameworks hold sequencing errors
# Outline: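 In a synthetic yeast display library (Saccharomyces cerevisiae BJ5465), nanobody expression was induced with galactose for 36–48 hours. FACS gates were set low and high (top ~1%) using anti-HA fluorescence for expression and streptavidin fluorescence for binding of the Sf9 membrane reagent. Each polyreactivity label is drawn from the gate of origin.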
row,Sequence,polyreactivity (PSR sort gate)
1,QVQLVESGGGLVQAGGSLRLSCAASGITFRHYDMGWYRQAPGKERELVAAITSRGGSTYYADSVKGRFTISRDNAKNTVYLQMNSLKPQDTAVYYCNKRLYYQRWPAAAREYWGQGTQVTVSS,high polyreactivity
2,QVQLVESGGGLVQAGGSLRLSCAASGITFRKYAMGWYRQAPGKERELVAGIRRGGSTYYADSVKGRFTISRDNAKNTVYLQMNSLKPEDTAVYYCATRARYKRIRYDYWGQGTQVTVSS,high polyreactivity
3,QVQLVESGGGLVQAGGSLRLSCAASGITFRNYAMGWYRPAPGKERELVADITTGGSTYADSVKGRFTISRDNAKNTVYLQMISLKPEDTAVYYCAARYFSYYILRRIYPVREDYWGQGTQVTVSS,low polyreactivity
4,QVQLVESGGGLVQAGGSLRLSCAASGITFRPYTMGWYRQAPGKERELVATINWSGGSTYYADSVKGRFTISRDNAKNTVYLQMNSLKPEDTAVYYCAVTWYVRRWYGYWGQGTQVTVSS,high polyreactivity
5,QVQLVESGGGLVQAGGSLRLSCAASGITFRRNAMGWYRQAPGKERELVAGITRGGTTKYADSVKGRFTISRDNAKNTVYLQMNSLKPEDTAVYYCNAVTRRHKYYYWGQGTQVTVSS,high polyreactivity
6,QVQLVESGGGLVQAGGSLRLSCAASGITFRSYAMGWYRQAPGKERELVATISWSGGITYYADSVKGRFTISRDNAKNTVYLQMNSLKPEDTAVYYCAKASQSWGRDDYYYWGQGTQVTVSS,low polyreactivity
7,QVQLVESGGGLVQAGGSLRLSCAASGITFRTNTMGWSRQAPGKERELVAAITWDGGSTYYADSVKGRFTISRDNAKNTVYLQMNSLKPEDTAVYYCAARLSYLYGLYPYYYWGQGTQVTVSS,high polyreactivity
8,QVQLVESGGGLVQAGGSLRLSCAASGITFRTYAMGWYRQAPGKERELVAAISSRGGSTYYADSVKGRFTISRDNAKNTVYLQMNSLKPEDTAVYYCNARDVRYYEYGYWGQGTQVTVSS,high polyreactivity
9,QVQLVESGGGLVQAGGSLRLSCAASGITFRYNAMGWYRQAPGKERELVAAITFSGGSTYYADSVKGRFTISRDNAKNTVDLQMNSLKPEDTAVYYCAKLGSTSSRGNYDYWGQGTQVTVSS,low polyreactivity
10,QVQLVESGGGLVQAGGSLRLSCAASGITFRYYAMGRYRQAPGKERELVAAITRSGSTTYADSVKGRFTISRDNAKNTVYLQMNSLKPVDTAVYYCAVDYYYLTGGVDYWGQGTQVTVSS,low polyreactivity
11,QVQLVESGGGLVQAGGSLRLSCAASGITFRYYAMGWSRQAPGKERELVADITRSGGTTYYADSVKGRFTISRDNAKNTVYLQMNSLKPEDSAVYYCAVDLNWWGWGLLQYDYWGQGTQVTVSS,high polyreactivity
12,QVQLVESGGGLVQAGGSLRLSCAASGITFRYYAMGWYRPAPRKERELVAVISTSGGSTYYADSVKGRFTISRDNAKNTVYLQMNSLKPEDTAVYYCAARYSRSRRYRMDYWGQGTQVTVSS,high polyreactivity
13,QVQLVESGGGLVQAGGSLRLSCAASGITFRYYAMGWYRQAPGKERELVAAISSGGGTYYADSVKGRFTISRDNAKNTVYLQMNSLKPEDTAVYYCNVLRLYPSMDYWGQGTQVTVSS,high polyreactivity
14,QVQLVESGGGLVQAGGSLRLSCAASGITFSFYAMGWYRQAPGKERELVAGITRSGGDTYYADSVKGRFTISRDNAKNTVYLQMNSLKPEDTAVYYCAAAWFFYRRQYTFFAGRMDYWGQGTQVTVSS,high polyreactivity
15,QVQLVESGGGLVQAGGSLRLSCAASGITFSGNAMGWYRQAPGKERELVAAISRNGGRTYYADSVKGRFTISRDNAKNTVYLQMNSLKPEDTAVYYCAKDAYGYSRVSAWYYTYDYWGQGTQVTVSS,high polyreactivity
16,QVQLVESGGGLVQAGGSLRLSCAASGITFSGNAMGWYRQAPGKERELVATISQSGGSTYYADSVKGRFTISRDNAKNTVYLQMNSLKPEDTAVYYCNVNLQGRYSDKYDYWGQGTQVTVSS,high polyreactivity
17,QVQLVESGGGLVQAGGSLRLSCAASGITFSGYAMGWYRQAPGKERDFVAGISYSGGSTYYADSVKGRFTISRDNAKNTVYLQMNSLKPEDTAVYYCAAYFGHYWRYYYWGQGTQVTVSS,high polyreactivity
18,QVQLVESGGGLVQAGGSLRLSCAASGITFSKYAMGWYRQAPGKERELVAAITRSGGSTYYADSVKGRFTISRDNAKNTVYLQMNSLKPEDTAVYYCNARGYVTGGDGGYGYWGQGTQVTVSS,high polyreactivity
19,QVQLVESGGGLVQAGGSLRLSCAASGITFSLYAMGWYRQAPGKERELVAAITRSGGSTYYADSVKGRFTISRDNAKNTVYLQMNSLKPEDTAVYYCAAKRPGVRRYYYWGQGTQVTVSS,high polyreactivity
20,QVQLVESGGGLVQAGGSLRLSCAASGITFSLYAMGWYRQAPGKERELVAAITRSGGSTYYADSVKGRFTISRDNAKNTVYLQMNSLKPEDTAVYYCAAQRPGVRRYYYWGQGTQVTVSS,high polyreactivity
21,QVQLVESGGGLVQAGGSLRLSCAASGITFSNYAMGWYRQAPGKERELVAAITLSGGRTYYADSVKGRFTISRDNAKNTVYLQMNSLKPEDTAVYYCAAGRTRRPLGGTTKYYYWGQGTQVTVSS,high polyreactivity
22,QVQLVESGGGLVQAGGSLRLSCAASGITFSPYTMGWYRQAPGKERELVAAINDGAITYYADSVKGRFTISRDNAKNTVYLQMNSLKPEDTAVFYCAAAAWGTDPFSTDYATYDYWGQVTQVTVSS,low polyreactivity

row,Sequence,polyreactivity (PSR sort gate)
1,QVQLVESGGGLVQAGGSLRLSCAASGITFSQYAMGWYTQAPGKERELVASISEGDGTNYADSVKGRFTISRDNAKNTVYLQMNSLKPEDTAVYYCAAPRPYYWSRRYYRAFDYWGQGTQVTVSS,high polyreactivity
2,QVQLVESGGGLVQAGGSLRLSCAASGITFSRYAMGWYRQAPGKERELVAAITWDGGRTYYADSVKGRFTISRDNAKNTVYLQMNSLKPEDTAVYYCAAGSAWWYYWGQGTQVTVSS,high polyreactivity
3,QVQLVESGGGLVQAGGSLRLSCAASGITFSSYAMGWYRQAPGKEMELVAAISYGGGNTYYADSVKGRFTISRDNAKNTVYLQMNSLKPEDTSVYYCNTLYTSYSGLDYWGQGTQVTVSS,high polyreactivity
4,QVQLVESGGGLVQAGGSLRLSCAASGITFSVNTMGWYRQAPGKERELVAAITSAGGTYYADSVKGRFTISRDNAKNTVYLQMNSQKPEDTAVYYCAAANFRSYLSQTGPRAYYYWGQGTQVTVSS,low polyreactivity
5,QVQLVESGGGLVQAGGSLRLSCAASGITFSYAMGWYRQAPGKERELVAGITTSGGSTYADSVKGRFTISRDNAKNTVYLQMNSLKPEDTAVYYCAADRSAVQFSAFLEYDYWGQGTQVTVSS,low polyreactivity
6,QVQLVESGGGLVQAGGSLRLSCAASGITFSYNAMGWSRQAPGKERELVAAIRVGDGSTYYADSVKGRFTISRDNAKNTVYLQMNSLKPEDTAVYYCNARYLRLRYPYTDEYNYWGQGTQVTVSS,low polyreactivity
7,QVQLVESGGGLVQAGGSLRLSCAASGITFSYNAMGWYRQAPGKERELVAAISDIGGSTYYADSVKGRFTISRDNAKNTVYLQMNSLKPEDTAVYYCAADEYYQDESDYWGQGTQVTVSS,low polyreactivity
8,QVQLVESGGGLVQAGGSLRLSCAASGITFTENVMGWYRQAPGKERELVAGISRSGGITYYADSVKGRFTISRDNAKNTVYLQMNSLKPEDTAVYYCAAEEAYRSRRGGFDYWGQGTQVTVSS,high polyreactivity
9,QVQLVESGGGLVQAGGSLRLSCAASGITFTFNAMGWYRQAPGKERELVAAITWSGGSTFYADSVKGRFTITRDNAKNTVYLQMNSLKPEDTAVYYCARDTELYVRWLDYWGQGTQVTVSS,low polyreactivity
10,QVQLVESGGGLVQAGGSLRLSCAASGITFTGYAMGWYRQAPGKERELVAAITSGGGRTYYADSVKGRFTISRDNAKNTVYLQMNSLKPEDTAVYYCATRYVTIVGYDYWGQGTQVTVSS,high polyreactivity
11,QVQLVESGGGLVQAGGSLRLSCAASGITFTIYAMGCNRQAPGKERELVAAITWTSDITHYADSVKGRVTISRDNAKNTDYLQMNSLKPEDTAVYYCGATTWDEYDYWGQGTQVTVSW,high polyreactivity
12,QVQLVESGGGLVQAGGSLRLSCAASGITFTRNVMGWYRQAPGKERELVAAISGSGGSTYYADSVKGRFTISRDNAKNTFYLQMNSLKPEDTAVYYCAARSRGGRRYDYWGQGTQVTVSS,high polyreactivity
13,QVQLVESGGGLVQAGGSLRLSCAASGITFTSYAMGWYRQAPGKERELVAAISSSGVRTYYADSVKGRFTISRDNAKNTVYLQMNSLKPEDTAVYYCATRRRVLYGYDYWGQGTQVTVSS,high polyreactivity
14,QVQLVESGGGLVQAGGSLRLSCAASGITFTSYAMGWYRQATGKERELVAAITSSGSSTYYADSVKGRFTISRDNAKNTVYLQMNSLKPEDTAVYYCAAKHVGWYVQEEDYWGQGTQVTVSS,low polyreactivity
15,QVQLVESGGGLVQAGGSLRLSCAASGITFTSYVMGWYRQAPGKERELVAAIRWSGGRTYYADSVKGRFTISRDNAKNTVYLQLNSLKPEDTAVYYCNRVTRSHVDYWGQGTQVTVSS,high polyreactivity
16,QVQLVESGGGLVQAGGSLRLSCAASGITFTVNAMGWYRQSPGKERELVAAISWSGGSTYYADSVKGRFTISRDNAKNTVYLQMNSLKPEDTAVYYCNAVLYRFAYNYWGQGTQVTVSS,low polyreactivity
17,QVQLVESGGGLVQAGGSLRLSCAASGITFTVYAMGWYRQAPGKERELVAAISQSGGSTYYADSVKGRFTISRDNAKNTVYLQMNSLNPEYTAVYDCNSDTVWGPYRSYIPFDYWGQGTQVNVSS,low polyreactivity
18,QVQLVESGGGLVQAGGSLRLSCAASGITFTWYAMGWYRQAPGKERELVAAISGGGSTYYVDSVKGRFTISRDNAKNTVYLQMNSLKPEDTAVYYCAARYSWTRRTMYYWGQGTQVTVSS,high polyreactivity
19,QVQLVESGGGLVQAGGSLRLSCAASGITFVAYAMGWYRQAPGKERELVAAISKSGGNTYYADSVKGRFTISRDNAKNTVYLQMNSLKPEDTAVYYCAAPRRYAWGQVNYWGQGTQVTVSS,high polyreactivity
20,QVQLVESGGGLVQAGGSLRLSCAASGITFVGNAMGWYRQAPGKERELVAGIRGNGGSTYYADSVKGRFTISRDNAKNTVYLQMNSLKPEDTAVYYCAAAAYYADFDYWGQGTQVTVSS,low polyreactivity
21,QVQLVESGGGLVQAGGSLRLSCAASGITFVGNDMGWYRQAPGKERELVATISSSGTRTYYADSVKGRFTISRDNAKNTVYLLMNSLKPEDTAVYYCAARWRSYITYWFDYWGQGTQVTVSS,low polyreactivity
